The text below walks through data of article PMC7135998.

The test deals with α-tubulin of purified porcine brain tubulin (porcine) (UniProt P02550).
Chain of UniProt P02550 (P02550 whole entry): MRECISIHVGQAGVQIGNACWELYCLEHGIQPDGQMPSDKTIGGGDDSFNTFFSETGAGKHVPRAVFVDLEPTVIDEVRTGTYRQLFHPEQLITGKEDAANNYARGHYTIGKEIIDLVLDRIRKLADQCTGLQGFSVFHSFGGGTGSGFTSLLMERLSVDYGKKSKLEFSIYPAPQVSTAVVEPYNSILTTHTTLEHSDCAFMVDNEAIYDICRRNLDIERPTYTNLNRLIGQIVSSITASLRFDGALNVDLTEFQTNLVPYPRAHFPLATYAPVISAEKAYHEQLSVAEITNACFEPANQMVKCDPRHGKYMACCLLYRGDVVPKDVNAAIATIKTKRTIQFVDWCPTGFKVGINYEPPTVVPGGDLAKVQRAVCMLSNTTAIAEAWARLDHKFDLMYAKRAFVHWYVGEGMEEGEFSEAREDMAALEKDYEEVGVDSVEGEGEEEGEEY

With “LSF present in purified porcine brain tubulin preparations (natural protein)”, the methylation of purified tubulin by GST-SET8 ([3H]AdoMet, autoradiogram) with increasing concentrations of the LSF inhibitor FQI1, up to 100 μM amounted to 3 fold.
